From the Human Domainome abundance scans (Beltran et al. 2025)
± gives the uncertainty stated by the source.

B1: Far upstream element-binding protein 2, residues 142 to 214; numbered along this chain, Q92945 (parent)
chain: RTSMTEEYRVPDGMVGLIIGRGGEQINKIQQDSGCKVQISPDSGGLPERSVSLTGAPESVQKAKMMLDDIVSR

Variants of: B1
Experiment: abundance fitness (aPCA) (normalised: wild type 0, dead -1); higher = more abundant; growth selection in yeast, the domain comes from the species named
Details: Homo sapiens

Row | Variant | abundance fitness
1 | R1L | -0.071 ± 0.097
2 | R1F | -0.297 ± 0.19
3 | R1M | 0.19 ± 0.07
4 | R1I | 0.195 ± 0.11
5 | N27S | -0.054 ± 0.044
6 | N27E | -0.006 ± 0.078
7 | N27I | -0.109 ± 0.086
8 | N27A | -0.095 ± 0.048
9 | S59I | -0.848 ± 0.12
10 | S59R | -0.373 ± 0.039
11 | D42E | -0.007 ± 0.053
12 | D42G | -0.097 ± 0.042
13 | D42N | -0.069 ± 0.092
14 | E48Y | 0.103 ± 0.079
15 | E48H | -0.007 ± 0.076
16 | E48C | -0.169 ± 0.069
17 | E48S | -0.024 ± 0.045
18 | E48T | 0.006 ± 0.048
19 | E48Q | -0.038 ± 0.059
20 | E48R | -0.12 ± 0.039
21 | L46M | -0.033 ± 0.055
22 | L46Y | -0.153 ± 0.074
23 | L46T | -0.002 ± 0.05
24 | L46N | -0.144 ± 0.088

Row | Variant | abundance fitness
25 | L46I | -0.145 ± 0.07
26 | L46S | 0.004 ± 0.044
27 | T5W | -0.456 ± 0.045
28 | T5A | -0.248 ± 0.042
29 | T5L | -0.384 ± 0.04
30 | T5H | -0.235 ± 0.054
31 | T5S | -0.11 ± 0.039
32 | T5N | -0.16 ± 0.07
33 | T5G | -0.485 ± 0.039
34 | T5F | -0.331 ± 0.084
35 | Y8P | -0.342 ± 0.056
36 | Y8C | -0.609 ± 0.063
37 | Y8F | -0.116 ± 0.073
38 | Y8H | -0.12 ± 0.067
39 | Y8L | -0.089 ± 0.039
40 | K64Q | -0.422 ± 0.063
41 | K64P | -0.687 ± 0.07
42 | K64N | -0.703 ± 0.08
43 | K64G | -0.757 ± 0.041
44 | K64R | -0.016 ± 0.037
45 | V15E | -0.03 ± 0.065
46 | V15Q | -0.272 ± 0.06
47 | V15W | -0.081 ± 0.063
48 | V15G | -0.282 ± 0.058

Row | Variant | abundance fitness
49 | V15S | -0.219 ± 0.053
50 | V15H | -0.214 ± 0.1
51 | E58K | -0.065 ± 0.068
52 | V10K | -0.603 ± 0.067
53 | V10T | -0.464 ± 0.051
54 | V10Q | -0.709 ± 0.062
55 | V10A | -0.289 ± 0.044
56 | V10W | -0.726 ± 0.073
57 | V10C | -0.137 ± 0.057
58 | G44T | -0.017 ± 0.051
59 | G44E | 0.008 ± 0.054
60 | G44Y | -0.084 ± 0.12
61 | G44Q | 0.034 ± 0.062
62 | G44F | -0.194 ± 0.096
63 | G44H | -0.083 ± 0.069
64 | R49E | -0.267 ± 0.056
65 | R49P | -0.067 ± 0.059
66 | R49V | -0.139 ± 0.047
67 | R49S | -0.026 ± 0.052
68 | R49W | -0.202 ± 0.055
69 | R49H | 0.025 ± 0.089
70 | R49D | -0.386 ± 0.088
71 | L67K | -0.582 ± 0.056
72 | L67I | 0.041 ± 0.069

Row | Variant | abundance fitness
73 | L67P | -0.652 ± 0.064
74 | L67A | -0.5 ± 0.045
75 | S52C | 0.027 ± 0.058
76 | S52L | 0.059 ± 0.041
77 | S52V | 0.041 ± 0.041
78 | S52N | -0.177 ± 0.093
79 | S52A | -0.094 ± 0.044
80 | S52Y | 0.097 ± 0.083
81 | E24L | -0.199 ± 0.047
82 | G22M | -0.115 ± 0.062
83 | G22Q | -0.026 ± 0.055
84 | G22Y | -0.226 ± 0.083
85 | G22S | -0.148 ± 0.047
86 | M66S | -0.428 ± 0.05
87 | M66H | -0.523 ± 0.08
88 | M66P | -0.532 ± 0.054
89 | M66C | -0.427 ± 0.069
90 | S40E | -0.013 ± 0.047
91 | S40L | 0.01 ± 0.049
92 | S40H | -0.078 ± 0.072
93 | S40W | -0.207 ± 0.055
94 | S40V | 0.025 ± 0.044
95 | S40I | -0.069 ± 0.095
96 | M14I | -0.003 ± 0.065

Row | Variant | abundance fitness
97 | M14H | -0.235 ± 0.063
98 | M14K | -0.017 ± 0.053
99 | M14S | -0.219 ± 0.042
100 | M14W | -0.319 ± 0.05
101 | M14R | -0.314 ± 0.038
102 | G34Q | -0.247 ± 0.07
103 | G34W | -1.02 ± 0.087
104 | G34Y | -0.998 ± 0.15
105 | M4W | -0.15 ± 0.049
106 | M4K | 0.029 ± 0.056
107 | M4R | -0.079 ± 0.037
108 | M4L | -0.002 ± 0.043
109 | G13N | 0.18 ± 0.062
110 | G13E | 0.12 ± 0.051
111 | G13T | 0.035 ± 0.046
112 | G13C | -0.127 ± 0.056
113 | S33W | -1.09 ± 0.08
114 | S33R | -1.06 ± 0.056
115 | S33T | -0.006 ± 0.055
116 | S33F | -0.474 ± 0.092
117 | E6S | -0.017 ± 0.041
118 | E6T | 0.125 ± 0.048
119 | E6N | -0.255 ± 0.069
120 | I18P | -0.324 ± 0.055

Row | Variant | abundance fitness
121 | I18H | -0.51 ± 0.072
122 | I18E | -0.287 ± 0.054
123 | I18L | 0.035 ± 0.042
124 | I18M | -0.17 ± 0.055
125 | I18Q | -0.346 ± 0.054
126 | I26K | -0.352 ± 0.068
127 | I26P | -0.639 ± 0.065
128 | I26W | -0.215 ± 0.11
129 | S50M | -0.125 ± 0.064
130 | S50C | 0.043 ± 0.071
131 | S50Q | -0.139 ± 0.057
132 | I39V | -0.045 ± 0.046
133 | I39N | -0.578 ± 0.11
134 | I39Q | -0.543 ± 0.064
135 | I39L | -0.091 ± 0.043
136 | I39F | -0.177 ± 0.09
137 | R21T | -0.004 ± 0.043
138 | T54S | -0.059 ± 0.045
139 | T54I | -0.205 ± 0.078
140 | T54V | -0.058 ± 0.046
141 | I19F | -0.098 ± 0.083
142 | I19A | -0.096 ± 0.048
143 | I19P | -0.35 ± 0.051
144 | I19N | -0.029 ± 0.097

Row | Variant | abundance fitness
145 | I19R | -0.091 ± 0.044
146 | S72P | -0.282 ± 0.056
147 | S72I | -0.086 ± 0.069
148 | S72L | -0.103 ± 0.043
149 | S43D | -0.031 ± 0.06
150 | S43Q | -0.027 ± 0.052
151 | S43M | -0.101 ± 0.07
152 | S43V | -0.11 ± 0.049
153 | S43G | -0.034 ± 0.041
154 | S43F | -0.328 ± 0.088
155 | S43C | -0.135 ± 0.066
156 | D12H | 0.013 ± 0.076
157 | D12K | -0.032 ± 0.061
158 | D12W | -0.524 ± 0.062
159 | D12E | -0.003 ± 0.055
160 | D12P | 0.051 ± 0.053
161 | V37Q | -0.811 ± 0.081
162 | V37S | -0.815 ± 0.057
163 | V37H | -0.962 ± 0.12
164 | V37I | -0.014 ± 0.07
165 | V37A | -0.372 ± 0.048
166 | V37K | -0.965 ± 0.089
167 | R9G | -0.235 ± 0.035
